Measured values: patent publication US20230049152A1

Molecular target: human CCR8 (human) (UniProt P51685)
Assay: cell-based or functional assay

ADCC reporter EC50, mFcgRIV Jurkat cells with CHO/hCCR8 (FIG. 11D): 0.28 nM
CCL1 blocking potency IC50, Ca2+ influx: 23.6 nM
induction fold at about 1 nM antibody, mFcgRIV Jurkat NFAT-luciferase reporter: > 10 fold
induction fold plateau at about 40 nM antibody, mFcgRIV Jurkat NFAT-luciferase reporter: 11 fold
Substance: murine anti-human CCR8 mAb L263G8 (Biolegend) (antibody)
